Test results as given in paper PMC9461663, “Covalent Inhibition of Pyruvate Kinase M2 Reprograms Metabolic and Inflammatory Pathways in Hepatic Macrophages against Non-alcoholic Fatty Liver Disease” (International Journal of Biological Sciences, 2022).

Molecular target: Pyruvate kinase M2 (mouse (endogenous in RAW264.7)) (UniProt P52480)
Test: not stated; PKM2 tetramer in LPS-treated RAW264.7 cells with celastrol (Fig. S4); method not given

Sequence of Pyruvate kinase M2, P52480 1-531 (enzyme; other documents disagree on this pair) (P52480 whole entry): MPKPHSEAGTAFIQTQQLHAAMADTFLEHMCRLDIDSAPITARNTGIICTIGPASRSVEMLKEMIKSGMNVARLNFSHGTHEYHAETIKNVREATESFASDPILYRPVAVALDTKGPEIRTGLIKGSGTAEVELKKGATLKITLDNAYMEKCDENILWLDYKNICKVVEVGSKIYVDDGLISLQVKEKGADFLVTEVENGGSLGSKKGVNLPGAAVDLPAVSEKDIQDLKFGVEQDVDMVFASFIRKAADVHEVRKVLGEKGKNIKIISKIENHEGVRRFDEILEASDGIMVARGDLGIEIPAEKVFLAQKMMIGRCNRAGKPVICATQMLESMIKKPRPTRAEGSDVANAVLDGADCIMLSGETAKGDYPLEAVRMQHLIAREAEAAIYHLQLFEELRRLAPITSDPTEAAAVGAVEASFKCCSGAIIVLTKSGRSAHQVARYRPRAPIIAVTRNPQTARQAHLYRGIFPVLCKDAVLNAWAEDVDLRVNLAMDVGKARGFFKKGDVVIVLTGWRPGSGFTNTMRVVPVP

- stoichiometry N: 4
Substance: Pyruvate kinase M2, P52480 1-531 (enzyme; other documents disagree on this pair)
